Drawing on patent US20230049152A1 (Genentech, published 2023), this text covers MFI, binding result and Kd for four molecules.

One assay addresses T1, human CCR8 (human, UniProt P51685 1-355).
T1 construct: the assay field says which; also called hCCR8; huCCR8
The experiment in a line: flow cytometry, 2 ug/mL mAb, Treg cells of human colorectal dissociated tumor cells. As to the method: The mAbs were evaluated for binding to regulatory T cells (Treg cells or Tregs) by Fluorescence-Activated Cell Sorting (FACS) flow cytometry. Human colorectal dissociated tumor cells (DTC) (Discovery Life Sciences) were thawed according to vendor's protocol. Cells were surface stained with eFluor 780-conjugated Fixable Viability Dye (ThermoFisher Scientific) and 2 ug/mL mAb specific for CCR8, OX40 (positive control), Herceptin (negative control), or anti-hIgG (negative control) for 20 min at 4° C. followed by secondary detection with AF647-conjugated AffiniPure F(ab′)2 Fragment Goat anti-Human IgG, Fcg fragment-specific (Jackson ImmunoResearch) for 10 min at 4° C. Cells were then intracellularly stained using the eBioscience Foxp3/Transcription Factor Staining Buffer Set (ThermoFisher Scientific) according to the manufacturer's protocol. […] Shown in FIG. 1 are mean fluorescent intensity (MFI) values for CD8 T cells (defined as CD45+CD14−CD3+CD8+CD4−) (circles, ◯), conventional CD4 T cells (defined as CD45+CD14−CD3+CD8−CD4+FOXP3−) (squares, □), and Treg cells (defined as CD45+CD14−CD3+CD8−CD4+FOXP3+) (triangles, ▴). Three of the five CCR8 mAb clones specifically stained Treg cells and not conventional CD4 or CD8 T cells and were ranked according to CCR8 MFI, greater than 500 MFI: hu.Ab4.H1L1>hu.Ab5.H1L1>hu.Ab3.H1L1. Upon confirmation that these three CCR8 mAb clones, namely, hu.Ab3.H1L1, hu.Ab4.H1L1, and hu.Ab5.H1L1, also retained human-cyno cross-reactivity (differences less than 5-fold on human and cyno CCR8 CHO cells), these antibodies carried forward for further exploration.

In assay [1] the target is T2, cyno CCR8 (cynomolgus monkey, UniProt O97665 1-356 (rhesus entry)).
T2 construct: also called cynomolgus monkey CCR8
The experiment in a line: flow cytometry on human and cyno CCR8 CHO cells.

A further assay concerns the target T3, human ACKR2 (human, UniProt O00590 1-384).
T3 construct: whole, on cells; transiently expressed on HEK293 cells
T3 sequence (looked up): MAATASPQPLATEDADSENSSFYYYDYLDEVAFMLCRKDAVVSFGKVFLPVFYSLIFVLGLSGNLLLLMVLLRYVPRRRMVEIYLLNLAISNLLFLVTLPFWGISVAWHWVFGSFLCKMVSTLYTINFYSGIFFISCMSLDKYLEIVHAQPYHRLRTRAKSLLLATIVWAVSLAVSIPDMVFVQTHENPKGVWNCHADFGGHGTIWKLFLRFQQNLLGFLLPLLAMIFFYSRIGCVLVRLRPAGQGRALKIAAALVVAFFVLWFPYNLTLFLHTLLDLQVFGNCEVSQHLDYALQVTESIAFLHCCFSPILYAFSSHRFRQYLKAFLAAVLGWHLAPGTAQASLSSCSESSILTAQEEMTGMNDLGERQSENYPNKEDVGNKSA
The experiment in a line: flow cytometry, HEK293 with N-term FLAG-tagged human ACKR2. From the text: FIGS. 4A-4F depicts the binding data of hu.Ab3.H1L1 (FIG. 4A), hu.Ab4.H1L1 (FIG. 4B), and hu.Ab5.H1L1 (FIG. 4C), as well as the commercial anti-CCR8 mAbs murine anti-human CCR8 mAb 433H (BD Biosciences) (FIG. 4D), and murine anti-human CCR8 mAb L263G8 (Biolegend) (FIG. 4E), and the humanized anti-human Yoshida anti-CCR8 mAb (FIG. 4F), to HEK293 cells that were transiently transfected with N-term FLAG-tagged plasmids encoding for human GPCRs (CCR2, CCR3, CCR4, CCR5, CCR8, CXCR4, ACKR2, and ACKR4), hCCR8 constructs, or with a mock construct using transIT X2 (reagent:DNA=3:1).
To confirm the selectivity to CCR8, the binding of hu.Ab3.H1L1, hu.Ab4.H1L1, and hu.Ab5.H1L1, as well as the Yoshida humanized anti-human CCR8, murine anti-human CCR8 mAb L263G8 (Biolegend, Commercial Ab) and murine anti-human CCR8 mAb 433H (BD Biosciences, Commercial Ab), were characterized by flow cytometry on HEK293 cells that were transiently transfected with plasmids encoding for FLAG-tagged other related human GPCRs (CCR2-5, CXCR4, ACKR2, and ACKR4). Cell surface expression of each GPCR was confirmed by staining with an anti-FLAG antibody control. […]

For assay [2], the target named is T2, cyno CCR8. Briefly: radioligand competition, 125I-labelled IgG versus unlabelled IgG on CHO cells stably expressing cyno CCR8. As to the method: Cell-based affinity measurements were performed using radiolabeled IgGs and CHO cell lines stably expressing human or cyno CCR8 for hu.Ab5.H13L1 and hu.Ab4.H12L3.
Briefly, stable CHO cells expressing human or cyno CCR8 were seeded in cold binding buffer (Opti-MEM+2% FBS+50 mM HEPES, pH 7.2+0.1% Sodium Azide) at 50,000 cells per well. A fixed concentration of ¹²⁵I-anti-CCR8 radiolabeled using the NEX244 Iodogen method (Perkin Elmer) was mixed with serially diluted anti-CCR8 antibodies starting at 20 nM or 50 nM. The antibody mixture was added to the cells and incubated at room temperature for 12 hours under gentle agitation. The cells and antibodies were then transferred to Millipore multiscreen filter plates. The filter plates were washed 4 times with 250 μL of cold binding buffer and dried for at least 30 minutes and the filters were punched into 5 mL polystyrene tubes. The radioactivity was measured using a Perkin Elmer Wallac Wizard 2470 Gamma Counter set at 1 count per minute with 0.8 counting efficiency. The data were fitted using the heterologous one site-fit Ki competitive binding model in GraphPad Prism.

A value given as a limit tells only on which side of the number the result lay.

T2 sequence (O97665 other isoform, or with tags, fused parts or gaps): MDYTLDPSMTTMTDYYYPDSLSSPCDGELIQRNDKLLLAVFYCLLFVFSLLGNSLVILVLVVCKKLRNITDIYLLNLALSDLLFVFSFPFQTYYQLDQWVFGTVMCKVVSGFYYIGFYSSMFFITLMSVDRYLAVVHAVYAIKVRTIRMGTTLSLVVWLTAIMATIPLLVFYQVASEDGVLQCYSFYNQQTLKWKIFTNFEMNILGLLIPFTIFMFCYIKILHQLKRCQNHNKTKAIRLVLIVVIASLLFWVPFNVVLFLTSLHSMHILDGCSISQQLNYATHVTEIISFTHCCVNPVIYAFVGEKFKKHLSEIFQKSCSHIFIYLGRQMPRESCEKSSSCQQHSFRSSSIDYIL

B1: hu.Ab4.H1L1 (antibody, human IgG1, kappa)
heavy: not shown
light: DYQMTQSPSSLSASVGDRVTITCQASQSISSYLSWYQQKPGKRPKLLIYKASTLASGVPSRFSGSGSGTDFTLTISSLQPEDFATYYCQQGYTSSNIDNIFGGGTKVEIKRTVAAPSVFIFPPSDEQLKSGTASVVCLLNNFYPREAKVQWKVDNALQSGNSQESVTEQDSKDSTYSLSSTLTLSKADYEKHKVYACEVTHQGLSSPVTKSFNRGEC
notes: also called hu.Ab4.H1Ll
Consider B1, for which the MFI in the assay with human CCR8 was > 500 MFI. Also, the results for the binding result with cyno CCR8 [1] and with human ACKR2 were “binds” and “no binding (tested: 5 ug/ml)”, respectively.

B2: hu.Ab4.H12L3 (antibody, human IgG1, kappa)
heavy: not shown
light: DYQMTQSPSSLSASVGDRVTITCQASQSISSYLSWYQQKPGKAPKLLIYKASTLASGVPSRFSGSGSGTDFTLTISSLQPEDFATYYCQQGYTSSNIDNIFGGGTKVEIKRTVAAPSVFIFPPSDEQLKSGTASVVCLLNNFYPREAKVQWKVDNALQSGNSQESVTEQDSKDSTYSLSSTLTLSKADYEKHKVYACEVTHQGLSSPVTKSFNRGEC
notes: fucosylated human IgG1; also called huCCR8-Ab4.H12L3.hIgG1; Ab4 variant
With B2, the Kd with cyno CCR8 [2] turned out to be 0.0243 nM.

B3: hu.Ab5.H1L1 (antibody, human IgG1, kappa)
heavy: not shown
light: DIQVTQSPSSLSASVGDRVTITCQASENIANALAWYQQKPGKPPKFLIYGASNLASGVPSRFSGSGSGTDFTFTISSLQPEDIATYYCQQAYYGNSFVEGTFGGGTKVEIKRTVAAPSVFIFPPSDEQLKSGTASVVCLLNNFYPREAKVQWKVDNALQSGNSQESVTEQDSKDSTYSLSSTLTLSKADYEKHKVYACEVTHQGLSSPVTKSFNRGEC
Turning to B3, the MFI in the assay with human CCR8 was > 500 MFI. The binding result is “binds” in the assay with cyno CCR8 [1] and “no binding (tested: 5 ug/ml)” with human ACKR2.

B4: hu.Ab5.H13L1 (antibody, human IgG1, kappa)
heavy: not shown
light: DIQVTQSPSSLSASVGDRVTITCQASENIANALAWYQQKPGKPPKFLIYGASNLASGVPSRFSGSGSGTDFTFTISSLQPEDIATYYCQQAYYGNSFVEGTFGGGTKVEIKRTVAAPSVFIFPPSDEQLKSGTASVVCLLNNFYPREAKVQWKVDNALQSGNSQESVTEQDSKDSTYSLSSTLTLSKADYEKHKVYACEVTHQGLSSPVTKSFNRGEC
notes: fucosylated human IgG1; also called Ab5 variant
As for B4, in the assay with cyno CCR8 [2], the Kd is 0.0034 nM.
